From article PMC12700547, “Auranofin attenuates TOPBP1-mediated ATR replication stress response and improves chemotherapeutic response in breast tumor models” (The Journal of Clinical Investigation, 2025)
Where no end group is shown, it is not given here. [ ]: non-standard residue; d: D form. pT = C[C@@H](OP(=O)(O)O)[C@H](N)C(=O)O

Key:
[1] = target: auranofin; assay: BLI; conditions: auranofin 25, 50, 100, 200 µM; n = 2; parent: 2.358E-5 M
[2] = target: T1, His-tagged recombinant TOPBP1 BRCT 7–8 (UniProt Q92547 1264-1493); assay: BLI; Octet RED96; biotin-peptides immobilized on biosensors; His-tagged BRCT 7–8 (1 μM) alone or preincubated with a serial dilution of compound (auranofin) as analyte; PBS with 0.1% BSA, 0.02% Tween-20, 1% DMSO; 2 minutes of dissociation; 1:1 binding model with local fit; conditions: both partners purified
T1 construct: The cited crystal structures 7CMZ and 3AL3 hold BRCT 7–8; also called BRCT 7–8/WT; His-tagged BRCT 7–8; source: E coli cells, purified
T1 sequence (Q92547 1264-1493): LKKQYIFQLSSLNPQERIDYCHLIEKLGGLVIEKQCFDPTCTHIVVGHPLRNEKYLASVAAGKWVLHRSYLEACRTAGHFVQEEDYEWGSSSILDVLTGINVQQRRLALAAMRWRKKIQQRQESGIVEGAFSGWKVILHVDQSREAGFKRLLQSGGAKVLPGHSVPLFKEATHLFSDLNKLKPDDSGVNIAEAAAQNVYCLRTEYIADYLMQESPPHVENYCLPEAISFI

Molecule: His-tagged recombinant TOPBP1 BRCT 7–8 (from UniProt Q92547) F1411A
- Kd [1]: 4.22 mM

B1: biotin-F1071 peptide (F1071-containing peptide of the TOPBP1 AAD) (peptide)
peptide: TLEMRENFQKQLQEI
modifications: not fully specified (N-terminus); printed as TLEMRENF_1071_QKQLQEI; also: biotin, position not given here
- binding result [2]: binds

B2: biotin-Y989 peptide (Y989-containing peptide of the TOPBP1 AAD) (peptide)
peptide: ECKHLPESLYPHTYN
modifications: not fully specified (N-terminus); printed as ECKHLPESLY_989_PHTYN; also: biotin, position not given here
- binding result [2]: binds

B3: biotin-APS peptide (acidic patch sequence of PHF8) (peptide)
peptide: GACFKDAEYIYPSLESDDDDPA
modifications: not fully specified (N-terminus); also: biotin, position not given here
notes: also called PHF8/APS peptide
- binding result [2]: binds

B4: biotin-pFANCJ peptide (phosphorylated Thr1133 containing peptide of FANCJ) (peptide)
peptide: EAEDESIYF[pT]PELYDPEDT
modifications: not fully specified (N-terminus); printed as EAEDESIYF(pT)PELYDPEDT; also: biotin (site not given here)
notes: also called phosphorylated FANCJ peptide
- binding result [2]: binds
